Source: patent US20190225669A1 (ACCELERON PHARMA, published 2019)
Like-named read-outs stand apart in the source and are kept apart here.

How the values were obtained:
[1] = target: T1, BMP6 (UniProt P22004 382-513, limits assumed); test: Biacore SPR
T1 sequence (looked up): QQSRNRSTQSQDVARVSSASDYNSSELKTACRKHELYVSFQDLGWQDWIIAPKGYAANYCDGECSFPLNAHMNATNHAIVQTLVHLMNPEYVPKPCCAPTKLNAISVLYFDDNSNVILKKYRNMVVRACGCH
Experimental: (§1) Ligands were injected and allowed to flow over the captured receptor protein.

[2] = target: T2, activin A (UniProt P08476 311-426); test: Biacore SPR
T2 sequence (looked up): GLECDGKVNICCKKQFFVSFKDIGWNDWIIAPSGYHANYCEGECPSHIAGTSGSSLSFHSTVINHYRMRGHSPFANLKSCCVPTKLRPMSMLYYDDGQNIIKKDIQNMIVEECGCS
Experimental: as §1

[3] = target: T3, BMP5 (UniProt P22003 317-454, limits assumed); test: Biacore SPR
T3 sequence (looked up): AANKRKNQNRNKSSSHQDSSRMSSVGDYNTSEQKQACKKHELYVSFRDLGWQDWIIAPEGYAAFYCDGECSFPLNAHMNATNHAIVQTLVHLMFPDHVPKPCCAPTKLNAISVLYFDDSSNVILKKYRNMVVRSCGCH
Experimental: as §1

[4] = target: T4, GDF8 (UniProt O14793 267-375); test: Biacore SPR
T4 construct: also called myostatin
T4 sequence (looked up): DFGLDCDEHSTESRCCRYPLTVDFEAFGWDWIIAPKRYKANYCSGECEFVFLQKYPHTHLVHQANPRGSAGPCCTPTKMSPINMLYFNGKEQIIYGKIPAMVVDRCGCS
Experimental: as §1

[5] = target: T5, activin B (UniProt P09529 293-407); test: Biacore SPR
T5 sequence (looked up): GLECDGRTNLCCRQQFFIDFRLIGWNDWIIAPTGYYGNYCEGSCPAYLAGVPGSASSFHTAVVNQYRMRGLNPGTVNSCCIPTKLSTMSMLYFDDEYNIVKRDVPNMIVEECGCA
Experimental: as §1

[6] = target: T6, GDF11 (UniProt O95390 299-407); test: Biacore SPR
T6 construct: also called BMP11
T6 sequence (looked up): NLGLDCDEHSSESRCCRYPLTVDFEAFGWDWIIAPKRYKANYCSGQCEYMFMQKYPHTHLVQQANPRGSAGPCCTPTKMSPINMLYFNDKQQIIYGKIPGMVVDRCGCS
Experimental: as §1

[7] = target: T7, BMP10 (UniProt O95393 317-424); test: Biacore SPR
T7 sequence (looked up): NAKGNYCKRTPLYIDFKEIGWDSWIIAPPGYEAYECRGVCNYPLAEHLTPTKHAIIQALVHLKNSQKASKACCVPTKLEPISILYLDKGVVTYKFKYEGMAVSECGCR
Experimental: as §1

[8] = target: T8, GDF3 (UniProt Q9NR23 251-364); test: Biacore SPR
T8 sequence (looked up): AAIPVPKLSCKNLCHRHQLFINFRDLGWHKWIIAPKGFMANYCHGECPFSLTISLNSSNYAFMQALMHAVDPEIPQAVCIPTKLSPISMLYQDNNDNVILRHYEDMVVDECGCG
Experimental: as §1

[9] = target: T9, BMP9 (UniProt Q9UK05 320-429); test: Biacore SPR; kinetics indeterminate (transient)
T9 construct: also called GDF2
T9 sequence (looked up): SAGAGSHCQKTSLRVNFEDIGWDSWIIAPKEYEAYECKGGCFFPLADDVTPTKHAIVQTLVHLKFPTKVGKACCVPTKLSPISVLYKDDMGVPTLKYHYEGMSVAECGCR
Experimental: as §1

[10] = target: T1, BMP6; test: Biacore SPR; remark: listed apart in the source
Experimental: as §1

[11] = target: T2, activin A; test: Biacore SPR; remark: listed apart in the source
Experimental: as §1

[12] = target: T4, GDF8; test: Biacore SPR; remark: listed apart in the source
Experimental: as §1

[13] = target: T5, activin B; test: Biacore SPR; remark: listed apart in the source
Experimental: as §1

[14] = target: T6, GDF11; test: Biacore SPR; remark: listed apart in the source
Experimental: as §1

[15] = target: T7, BMP10; test: Biacore SPR; remark: listed apart in the source
Experimental: as §1

[16] = target: T8, GDF3; test: Biacore SPR; remark: listed apart in the source
Experimental: as §1

B1: ActRIIB-Fc:ALK7-Fc heterodimer (Fc fusion)
chain 1: GRGEAETRECIYYNANWELERTNQSGLERCEGEQDKRLHCYASWRNSSGTIELVKKGCWLDDFNCYDRQECVATEENPQVYFCCCEGNFCNERFTHLPEAGGPEVTYEPPPTAPTGGGTHTCPPCPAPELLGGPSVFLFPPKPKDTLMISRTPEVTCVVVDVSHEDPEVKFNWYVDGVEVHNAKTKPREEQYNSTYRVVSVLTVLHQDWLNGKEYKCKVSNKALPAPIEKTISKAKGQPREPQVYTLPPSRKEMTKNQVSLTCLVKGFYPSDIAVEWESNGQPENNYKTTPPVLKSDGSFFLYSKLTVDKSRWQQGNVFSCSVMHEALHNHYTQKSLSLSPGK
chain 2: GLKCVCLLCDSSNFTCQTEGACWASVMLTNGKEQVIKSCVSLPELNAQVFCHSSNNVTKTECCFTDFCNNITLHLPTASPNAPKLGPMETGGGTHTCPPCPAPELLGGPSVFLFPPKPKDTLMISRTPEVTCVVVDVSHEDPEVKFNWYVDGVEVHNAKTKPREEQYNSTYRVVSVLTVLHQDWLNGKEYKCKVSNKALPAPIEKTISKAKGQPREPQVYTLPPSREEMTKNQVSLTCLVKGFYPSDIAVEWESNGQPENNYDTTPPVLDSDGSFFLYSDLTVDKSRWQQGNVFSCSVMHEALHNHYTQKSLSLSPG
notes: C-terminal Lys optional; also called ActRIIB-Fc:ALK7 heterodimer
[1]
  Kd: 5.3 nM
  koff: 0.0063 s⁻¹
  kon: 1.2e+06 M⁻¹ s⁻¹
[2]
  Kd: 0.043 nM
  koff: 0.0019 s⁻¹
  kon: 4.4e+07 M⁻¹ s⁻¹
[3]
  Kd: 57 nM
  koff: 0.0085 s⁻¹
  kon: 150000 M⁻¹ s⁻¹
[4]
  Kd: 0.27 nM
  koff: 0.001 s⁻¹
  kon: 3.7e+06 M⁻¹ s⁻¹
[5]
  Kd: 0.017 nM
  koff: 0.0002 s⁻¹
  kon: 1.2e+07 M⁻¹ s⁻¹
[6]
  Kd: 0.008 nM
  koff: 0.00075 s⁻¹
  kon: 9.5e+07 M⁻¹ s⁻¹
[7]
  Kd: 0.19 nM
  koff: 0.0028 s⁻¹
  kon: 1.5e+07 M⁻¹ s⁻¹
[8]
  Kd: 4.5 nM
  koff: 0.01 s⁻¹
  kon: 2.3e+06 M⁻¹ s⁻¹
[9]
  Kd: > 1.4 nM

B2: ActRIIB-Fc:ALK5-Fc heterodimer (Fc fusion)
chain 1: B1 chain 1
chain 2: ALLPGATALQCFCHLCTKDNFTCVTDGLCFVSVTETTDKVIHNSMCIAEIDLIPRDRPFVCAPSSKTGSVTTTYCCNQDHCNKIELPTTVKSSPGLGPVETGGGTHTCPPCPAPELLGGPSVFLFPPKPKDTLMISRTPEVTCVVVDVSHEDPEVKFNWYVDGVEVHNAKTKPREEQYNSTYRVVSVLTVLHQDWLNGKEYKCKVSNKALPAPIEKTISKAKGQPREPQVYTLPPSREEMTKNQVSLTCLVKGFYPSDIAVEWESNGQPENNYDTTPPVLDSDGSFFLYSDLTVDKSRWQQGNVFSCSVMHEALHNHYTQKSLSLSPG
notes: C-terminal Lys optional; also called ActRIIB-Fc:ALK5-Fc heterodimeric complex
[10]
  Kd: 1.7 nM
  koff: 0.015 s⁻¹
  kon: 9.3e+06 M⁻¹ s⁻¹
[11]
  Kd: 0.046 nM
  koff: 0.0016 s⁻¹
  kon: 3.6e+07 M⁻¹ s⁻¹
[12]
  Kd: 0.49 nM
  koff: 0.00052 s⁻¹
  kon: 1.1e+06 M⁻¹ s⁻¹
[13]
  Kd: 0.079 nM
  koff: 0.00031 s⁻¹
  kon: 3.9e+06 M⁻¹ s⁻¹
[14]
  Kd: 0.2 nM
  koff: 0.00046 s⁻¹
  kon: 2.3e+06 M⁻¹ s⁻¹
[15]
  Kd: 0.15 nM
  koff: 0.0022 s⁻¹
  kon: 2.3e+07 M⁻¹ s⁻¹
[16]
  Kd: 8.5 nM
  koff: 0.0097 s⁻¹
  kon: 1.1e+06 M⁻¹ s⁻¹
[9]
  Kd: > 6.6 nM
